{"source": "patent US20090130104A1", "about": "(University of Pennsylvania, published 2009)", "molecular_target": "low molecular weight single-chain urokinase plasminogen activator (lmw-scuPA), non-targeted (human, UniProt P00749 164-431)", "test": "ELISA on plates coated with soluble mouse PECAM", "procedure": "The size and homogeneity of purified scFv/uPA-T was analyzed using 12% SDS-PAGE with or without addition of thrombin (150 nM). Conversion to its two-chain derivative was determined in the presence of 50 mM dithiothreitol (DTT). cDNA encoding the extracellular domain of mouse PECAM (amino acids Glu¹⁸-Lys⁵⁹⁰) was obtained by the reverse transcription polymerized chain reaction (RT-PCR) using mouse lung tissue total RNA. A FLAG affinity tag was fused to the N-terminus and subcloned into the BglII and NotI sites in the pMT/Bip vector. Stable cell lines were generated. Soluble mouse PECAM was purified from secreted supernatant using M2 anti-FLAG affinity chromatography. Specific binding of scFv/uPA-T to soluble PECAM was measured by ELISA. Each well within a 96-well plate was coated with 5 μg/ml soluble mouse PECAM protein overnight, the unbound sites were blocked with PBS containing 5% bovine serum albumin (BSA) at 37° C. for 1 h and various dilutions of scFv/uPA-T or WT lmw-scuPA were added for 1 hour. Unbound protein was removed by washing with PBS and 1 μg/ml anti-uPA monoclonal antibody in PBS containing 1% BSA was added. The wells were washed, horseradish peroxidase conjugated anti-mouse IgG was added, the wells washed again, TMB substrate was added and the optical density at 450 nm (OD450) was measured. […]"}
{"binder": "soluble mouse PECAM, extracellular domain (Glu18-Lys590) with N-terminal FLAG tag (receptor, UniProt Q08481 18-590, looked up, not shown: small tags and cut ends, range 18-590; Secreted from Drosophila cells (pMT/Bip vector), purified on M2 anti-FLAG; coated on 96-well plates at 5 ug/ml; also called immobilized extracellular domain of mouse PECAM; immobilized mouse PECAM) EENSFTINSIHMESLPSWEVMNGQQLTLECLVDISTTSKSRSQHRVLFYKDDAMVYNVTSREHTESYVIPQARVFHSGKYKCTVMLNNKEKTTIEYEVKVHGVSKPKVTLDKKEVTEGGVVTVNCSLQEEKPPIFFKIEKLEVGTKFVKRRIDKTSNENFVLMEFPIEAQDHVLVFRCQAGILSGFKLQESEPIRSEYVTVQESFSTPKFEIKPPGMIIEGDQLHIRCIVQVTHLVQEFTEIIIQKDKAIVATSKQSSEAVYSVMAMVEYSGHYTCKVESNRISKASSIMVNITELFPKPKLEFSSSRLDQGELLDLSCSVSGTPVANFTIQKEETVLSQYQNFSKIAEESDSGEYSCTAGIGKVVKRSGLVPIQVCEMLSKPSIFHDAKSEIIKGHAIGISCQSENGTAPITYHLMKAKSDFQTLEVTSNDPATFTDKPTRDMEYQCRADNCHSHPAVFSEILRVRVIAPVDEVVISILSSNEVQSGSEMVLRCSVKEGTSPITFQFYKEKEDRPFHQAVVNDTQAFWHNKQASKKQEGQYYCTASNRASSMRTSPRSSTLAVRVFLAPWKK", "values": [{"measurement": "binding result", "value": "no binding"}]}
